Data on eight substances can be found in patent publication US7118879.

Assay [1] deals with human neutrophil elastase (immobilized on Reacti-Gel agarose beads, or free) (human) (UniProt P08246). Put plainly: HNE beads, sum of pH washes.
Assay [2] concerns the target anhydro-trypsin (agarose-immobilized) (UniProt P00760). Description: 10 µl immobilized anhydro-trypsin slurry, 1 h.
For assay [3], the target named is human neutrophil elastase (immobilized on Reacti-Gel agarose beads, or free) (human) (UniProt P08246). Put plainly: HNE beads, pH 7.0 wash.
Assay [4] addresses anhydro-trypsin (agarose-immobilized) (UniProt P00760). Description: 5 µl immobilized anhydro-trypsin slurry, 2 h.
Assay [5] has the same target. Description: 5 µl immobilized anhydro-trypsin, dot blot.
Assay [6] has the same target. Description: anhydrotrypsin beads, experiment 2.
For assay [7] the target is unchanged. Put plainly: 10 µl immobilized anhydro-trypsin, dot blot.
The target in assay [8] is human neutrophil elastase (immobilized on Reacti-Gel agarose beads, or free) (human) (UniProt P08246). Description: acid-eluted from HNE beads.
Assay [9] concerns the target anhydro-trypsin (agarose-immobilized) (UniProt P00760). Put plainly: 2 µl immobilized anhydro-trypsin, dot blot.
In assay [10] the target is trypsin (active, immobilized on beads, or in solution) (UniProt P00760). Description: acid-eluted from trypsin beads.
Chain of trypsin (active, immobilized on beads, or in solution) (P00760 24-246): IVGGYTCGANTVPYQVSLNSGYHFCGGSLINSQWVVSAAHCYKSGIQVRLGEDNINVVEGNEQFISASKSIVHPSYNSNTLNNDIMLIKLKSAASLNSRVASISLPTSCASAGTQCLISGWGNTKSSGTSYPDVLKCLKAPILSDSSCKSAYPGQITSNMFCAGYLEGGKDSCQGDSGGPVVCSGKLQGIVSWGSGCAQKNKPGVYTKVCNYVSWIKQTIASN
The target is the same in assay [11]. Put plainly: trypsin beads.
Assay [12] has as its target anhydro-trypsin (agarose-immobilized) (UniProt P00760). Put plainly: 10 µl immobilized anhydro-trypsin slurry, 2 h.
Assay [13] has as its target trypsin (active, immobilized on beads, or in solution) (UniProt P00760). Put plainly: trypsin beads. The source holds these as a separate data set.
Assay [14] addresses human neutrophil elastase (immobilized on Reacti-Gel agarose beads, or free) (human) (UniProt P08246). Put plainly: HNE beads, pH 4.0 wash.
Assay [15] has the same target. Put plainly: HNE beads, pH 2.2 elution.
Assay [16] addresses anhydro-trypsin (agarose-immobilized) (UniProt P00760). Put plainly: 10 µl immobilized anhydro-trypsin slurry, 4 h.
In assay [17] the target is trypsin (active, immobilized on beads, or in solution) (UniProt P00760). Put plainly: trypsin beads, CBS pH 6.5, pH 2.2 elution.
For assay [18] the target is unchanged. Put plainly: trypsin beads, TBS pH 7.5, pH 2.2 elution.
Assay [19] addresses streptavidin (agarose-immobilized) (UniProt P22629). Description: 5 µl immobilized streptavidin slurry, 4 h.
Assay [20] addresses anhydro-trypsin (agarose-immobilized) (UniProt P00760). Description: 2 µl immobilized anhydro-trypsin slurry, 4 h.
Assay [21] has the same target. Description: 5 µl immobilized anhydro-trypsin slurry, 1 h.
Assay [22] concerns the target streptavidin (agarose-immobilized) (UniProt P22629). Put plainly: 5 µl immobilized streptavidin slurry, 2 h.
In assay [23] the target is anhydro-trypsin (agarose-immobilized) (UniProt P00760). Description: 2 µl immobilized anhydro-trypsin slurry, 2 h.
The target is the same in assay [24]. Put plainly: 2 µl immobilized anhydro-trypsin slurry, 1 h.
Assay [25] shares this target. Put plainly: 5 µl immobilized anhydro-trypsin slurry, 4 h.
Assay [26] addresses streptavidin (agarose-immobilized) (UniProt P22629). Put plainly: 5 µl immobilized streptavidin slurry, 1 h.
Assay [27] has as its target M13MB48 phage (BPTI fused to the mature M13 gene VIII major coat protein) (Bos taurus / phage M13). Description: titer after normal rabbit IgG; batch 4.
Assay [28] has the same target. Description: titer after normal rabbit IgG; batch 5.
For assay [29], the target named is M13mp18 phage (wild type, non-display phage). Put plainly: titer after normal rabbit IgG + protein A beads.
Assay [30] shares this target. Description: titer after normal rabbit IgG.
In assay [31] the target is M13MB48 phage (BPTI fused to the mature M13 gene VIII major coat protein) (Bos taurus / phage M13). Description: titer after normal rabbit IgG + protein A beads; batch 4.
For assay [32] the target is unchanged. Put plainly: titer after normal rabbit IgG + protein A beads; batch 5.
Assay [33] has as its target human Cathepsin G (immobilized on agarose beads) (human) (UniProt P08311). Put plainly: Cat-G beads, all pH eluates.
The target is the same in assay [34]. Put plainly: Cat-G beads, pH 7.0 eluate.
For assay [35] the target is unchanged. Description: Cat-G beads, pH 2.5 eluate.
Assay [36] shares this target. Put plainly: Cat-G beads, pH 3.0 eluate.
Assay [37] shares this target. Description: Cat-G beads, pH 3.5 eluate.
The target is the same in assay [38]. Description: Cat-G beads, pH 5.5 eluate.
Assay [39] shares this target. Description: Cat-G beads, final TBS-TWEEN wash.
Assay [40] shares this target. Description: Cat-G beads, pH 4.0 eluate.
The target is the same in assay [41]. Put plainly: Cat-G beads, pH 2.0 eluate.
For assay [42] the target is unchanged. Description: Cat-G beads, pH 6.0 eluate.
The target is the same in assay [43]. Put plainly: Cat-G beads, pH 5.0 eluate.
Assay [44] shares this target. Put plainly: Cat-G beads, pH 4.5 eluate.
In assay [45] the target is protein A (agarose beads) (UniProt P38507). Put plainly: titer after protein A beads alone; batch 5.
For assay [46], the target named is human neutrophil elastase (immobilized on Reacti-Gel agarose beads, or free) (human) (UniProt P08246). Description: HNE beads.
In assay [47] the target is anhydro-trypsin (agarose-immobilized) (UniProt P00760). Put plainly: acid-eluted from anhydrotrypsin beads, experiment 1.
The target is the same in assay [48]. Description: anhydrotrypsin beads, experiment 1.
The target is the same in assay [49]. Put plainly: titer after anhydrotrypsin beads.
Assay [50] concerns the target streptavidin (agarose-immobilized) (UniProt P22629). Put plainly: titer after streptavidin beads.
Assay [51] addresses anhydro-trypsin (agarose-immobilized) (UniProt P00760). Put plainly: eluted from anhydrotrypsin beads.
In assay [52] the target is trypsin (active, immobilized on beads, or in solution) (UniProt P00760). Put plainly: eluted from trypsin beads.
Assay [53] concerns the target anhydro-trypsin (agarose-immobilized) (UniProt P00760). Put plainly: anhydrotrypsin beads.
The target of assay [54] is human neutrophil elastase (immobilized on Reacti-Gel agarose beads, or free) (human) (UniProt P08246). Description: pH elution of phage from HNE beads.

Like-named read-outs stand apart in the source and are kept apart here.

Chain of streptavidin (agarose-immobilized) (P22629 37-163 limits assumed): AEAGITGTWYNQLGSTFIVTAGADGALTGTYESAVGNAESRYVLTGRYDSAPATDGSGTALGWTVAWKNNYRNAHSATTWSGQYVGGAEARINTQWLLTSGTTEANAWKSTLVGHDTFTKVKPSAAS
Chain of human neutrophil elastase (immobilized on Reacti-Gel agarose beads, or free) (human) (P08246 30-247 limits assumed): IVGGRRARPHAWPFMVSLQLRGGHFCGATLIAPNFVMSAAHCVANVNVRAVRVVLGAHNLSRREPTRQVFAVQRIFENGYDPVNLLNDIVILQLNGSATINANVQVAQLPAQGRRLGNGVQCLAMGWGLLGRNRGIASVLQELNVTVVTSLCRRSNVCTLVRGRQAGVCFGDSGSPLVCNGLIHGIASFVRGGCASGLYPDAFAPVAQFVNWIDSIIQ
Chain of human Cathepsin G (immobilized on agarose beads) (human) (P08311 21-244 limits assumed): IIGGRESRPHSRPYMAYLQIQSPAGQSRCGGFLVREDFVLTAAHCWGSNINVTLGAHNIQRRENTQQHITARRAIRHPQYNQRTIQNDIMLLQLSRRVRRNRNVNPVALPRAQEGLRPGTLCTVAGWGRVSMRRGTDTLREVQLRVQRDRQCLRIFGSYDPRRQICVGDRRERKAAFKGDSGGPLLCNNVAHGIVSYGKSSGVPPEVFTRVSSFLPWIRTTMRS

Consider “BPTI-III MK phage (M13 phage displaying mature BPTI fused to the gene III protein)”, for which, in assay [1], the percentage of input phage recovered (all fractions) came out at 0.008%. The percent residual titer in [2] is 40%; in assay [4], 40%; in assay [12], 30%. Moreover, the % of input phage in assay [3] stood at 0.002%; in assay [14], 0.001%. Besides, the total pfu in fraction amounted to 50000 pfu in [3] and 30000 pfu in [14]. For the same substance, the values for the percent of total phage recovered in elution buffer in assay [5], in assay [7] and in assay [9] were 20%, 50% and 5%, respectively. Also, the binding relative to M13mp18 in assay [6] was 40 fold. Moreover, the results for the eluted phage, % of input in assay [8] and in assay [10] were 0.005% and 1%, respectively. Moreover, the results for the relative binding (to M13MP18) in assay [11] and in assay [13] were 5000 fold and 2000 fold, respectively. This substance also yielded a % of input phage recovered in assay [15] of 0.005%.
“M13.3X7 phage (BPTI:VIII fusion with one EGGGS linker)” yielded an eluted phage, % of input in assay [8] of 0.001%.
For the substance “MK phage (M13-MB1/2-delta-NarI with kanamycin-resistance gene; no displayed domain)”, the percent residual titer turned out to be 106% in [16]; 99% in assay [2]; 98% in [19]; 111% in assay [4]; 95% in assay [20]; 110% in [21]. Further, the percent residual titer in assay [12] was 93%; in assay [22], 96%; in assay [23], 103%; in assay [24] it was 97%; in assay [25], 96%; in assay [26], 106%. Moreover, the % of input phage recovered in assay [17] was 0.00028%; in assay [18], 0.00034%. The total pfu recovered in elution buffer amounted to 1.35e+06 pfu in assay [17] and 1.48e+06 pfu in [18].
With “normal rabbit serum / IgG purified from normal rabbit pre-immune serum (antibody)”, the % of input pfu in assay [27] stood at 125%; in [28], 105%; in assay [29] it was 88%; in assay [30] it was 104%; in [31], 121%; in assay [32], 110%.
With “MA-ITI phage (M13 phage displaying human ITI domain I fused to the gene III protein) (from UniProt P02760 227-281)”, the fraction of input, SUM of pH elution fractions in assay [33] amounted to 3e-05. This substance came in with a total pfu, SUM of pH elution fractions in assay [33] of 1.4e+07 pfu. Also, the fraction of input in assay [34] came to 1.3e-05; in assay [35], 5.9e-07; in assay [36], 7.8e-07; in assay [37], 9.6e-07; in assay [38], 2.6e-06; in assay [39] it was 1.5e-05. The fraction of input was determined as 9.6e-07 in assay [40]; 7e-07 in [41]; 5e-06 in [42]; 2.4e-06 in assay [43]; 1.5e-06 in assay [44]. In assay [39], this substance showed a total pfu in sample of 7.1e+06 pfu.
With “M13MB48 phage (BPTI fused to the mature M13 gene VIII major coat protein)”, in assay [45], the % of input pfu is 58%. Moreover, the relative binding (to M13MP18) came out at 30 fold in assay [46] and 260 fold in [13]. The eluted phage, % of input in [47] came out at 11.2%; in assay [8], 0.009%; in [10] it was 0.13%. In assay [48], this substance gave a binding relative to M13MP18 of 56 fold. The % of input pfu post incubation worked out at 58% in assay [49] and 98% in [50].
As to “M13.3X11 phage (BPTI:VIII fusion with three linker units)”, the eluted phage, % of input in [51] was found to be 9.2%; in assay [8], 0.002%; in assay [52] it was 0.27%; in [10], 0.8%. The relative binding (to M13MP18) in assay [46] came out at 6.7 fold; in [11] it was 1200 fold; in assay [53] it was 92 fold; in assay [13] it was 1600 fold.
As to “BPTI(K15V,R17L)-III MA phage (designed binder)”, the pH of elution peak in [54] is 4.25 pH.
